Laboratory results from publication PMC5650148, “Ssn6-Tup1 global transcriptional co-repressor: Role of the N-terminal glutamine-rich region of Ssn6” (PLoS ONE, 2017).

B1: Ssn6 Sc3T (N175), the 175 amino-terminal residues of Ssn6 (domain or fragment, yeast, UniProt P14922 1-175, looked up)
chain: MNPGGEQTIMEQPAQQQQQQQQQQQQQQQQAAVPQQPLDPLTQSTAETWLSIASLAETLGDGDRAAMAYDATLQFNPSSAKALTSLAHLYRSRDMFQRAAELYERALLVNPELSDVWATLGHCYLMLDDLQRAYNAYQQALYHLSNPNVPKLWHGIGILYDRYGSLDYAEEAFAK
notes: Ssn6 (also known as Cyc8), yeast, the 175 amino-terminal residues: NTpolyQ tail and TPRs 1 to 3; One molecule stands for both two-hybrid forms of the same fragment: LexA-Sc3T as bait and Sc3T-Vp16 as prey; A chain carries either LexA or Vp16, never both; The LexA form was also used in the repression assay; also called LexA-Ssn6 Sc3T; LexA-Sc3T (N175); source: yeast two-hybrid fusion (LexA hybrid …)
B2: Tup1 N72, the Ssn6-interaction and Tup1 oligomerization domain (domain or fragment, yeast, UniProt P16649 1-72, looked up)
chain: MTASVSNTQNKLNELLDAIRQEFLQVSQEANTYRLQNQKDYDFKMNQQLAEMQQIRNTVYELELTHRKMKDA
notes: One molecule stands for both two-hybrid forms: LexA-Tup1 N72 as bait and Tup1 N72-Vp16 as prey; also called LexA-Tup1 N72; Tup1 N72-Vp16; source: yeast two-hybrid fusion (LexA hybrid from YCp91; Vp16 hybrid from YEp92)
B3: Ssn6 Δ29 (amino acids 30 to 180) (domain or fragment, yeast, UniProt P14922 30-180, looked up)
chain: QAAVPQQPLDPLTQSTAETWLSIASLAETLGDGDRAAMAYDATLQFNPSSAKALTSLAHLYRSRDMFQRAAELYERALLVNPELSDVWATLGHCYLMLDDLQRAYNAYQQALYHLSNPNVPKLWHGIGILYDRYGSLDYAEEAFAKVLELD
notes: Ssn6 (also known as Cyc8), yeast, amino acids 30 to 180; lacks residues 1-29 of the NTpolyQ tail and contains three intact TPRs; also called Ssn6 Δ29-Gal4; LexA-Ssn6 Δ29; source: yeast two-hybrid fusion (clone isolated from a Gal4pAD yeast genomic library, pACTII)
B4: Ssn6 Δ45 (amino acids 46-181), Vp16 activation hybrid (domain or fragment, yeast, UniProt P14922 46-181, looked up)
chain: AETWLSIASLAETLGDGDRAAMAYDATLQFNPSSAKALTSLAHLYRSRDMFQRAAELYERALLVNPELSDVWATLGHCYLMLDDLQRAYNAYQQALYHLSNPNVPKLWHGIGILYDRYGSLDYAEEAFAKVLELDP
notes: Ssn6 (also known as Cyc8), yeast, amino acids 46-181; lacks the entire NTpolyQ tail (1-45); the four N-terminal TPRs; also called Ssn6 Δ45-Vp16; Ssn6 Δ45-Vp1; source: yeast two-hybrid fusion (YEp92)
B5: Ssn6 Δ45 (amino acids 46-181), purified recombinant fragment (domain or fragment, yeast, UniProt P14922 46-181, looked up)
chain: B4 chain
notes: Ssn6 (also known as Cyc8), yeast, amino acids 46-181; the four N-terminal TPRs, without the NTpolyQ tail; Cloned in pGEX-2T; GST was removed with thrombin on the column; also called GST-Δ45; source: E. coli BL21(DE3), purified (Glutathione Sepharose 4B, thrombin digestion, Biogel P100 gel filtration)

How the values were obtained:
[1] = molecular target: B2; experiment: cell-based or functional assay
[2] = molecular target: B2; experiment: two-hybrid; LexA hybrids as DNA-binding baits, Vp16 or Gal4 activation domain hybrids as preys; wild-type yeast strain; lacZ reporter JK103 with four LexA operators upstream of the GAL1 TATA element; beta-galactosidase activity in Miller units, average of at least three transformants; details: partners not purified
[3] = molecular target: B1; experiment: as above; details: partners not purified
[4] = molecular target: the molecule itself; experiment: as above
[5] = molecular target: the molecule itself; experiment: SEC; Biogel P100 gel filtration in 20 mM phosphate buffer pH 8.0, 300 mM NaCl, 1 mM DTT; calibrated with protein standards; self-association of the fragment

B1 was tested, and the “fold repression of the 4Lop-CYC1 lacZ reporter by LexA-Ssn6 Sc3T in the wild-type strain (endogenous Tup1)” value [1] was 12 fold and the beta-galactosidase activity [2] was 80 Miller units.

With B2 the beta-galactosidase activity [3] was 51 Miller units and the beta-galactosidase activity [4] was 56 Miller units.

B3 was tested, and the “fold repression of the 4Lop-CYC1 lacZ reporter by LexA-Ssn6 Δ29 in the wild-type strain (endogenous Tup1)” value [1] was 1 fold and the beta-galactosidase activity [3] was 93 Miller units.

In the case of B4, the “fold repression of the 4Lop-CYC1 lacZ reporter by LexA-Ssn6 Δ45 in the wild-type strain (endogenous Tup1)” value [1] is reported as 1 fold and the beta-galactosidase activity [3] is reported as 122 Miller units.

In the case of B5, the “stoichiometry N” value [5] is reported as roughly 3.
